Results from patent publication US9212226B2, “Amino acid sequences directed against CXCR4 and other GPCRs and compounds comprising the same” (Ablynx N.V., priority 2008, dated 2015).
“Also recorded” adds a separate entry of the source.

Columns and labels:
CXCR3 = target: T1, CXCR3 (Homo sapiens, UniProt P49682); assay: CRE/β-galactosidase reporter gene selectivity screen, CXCR3; assay type: cell-based; conditions: up to 2.5, forskolin 3 μM, agonist at 50-80% Emax
T1 sequence (P49682 1-368): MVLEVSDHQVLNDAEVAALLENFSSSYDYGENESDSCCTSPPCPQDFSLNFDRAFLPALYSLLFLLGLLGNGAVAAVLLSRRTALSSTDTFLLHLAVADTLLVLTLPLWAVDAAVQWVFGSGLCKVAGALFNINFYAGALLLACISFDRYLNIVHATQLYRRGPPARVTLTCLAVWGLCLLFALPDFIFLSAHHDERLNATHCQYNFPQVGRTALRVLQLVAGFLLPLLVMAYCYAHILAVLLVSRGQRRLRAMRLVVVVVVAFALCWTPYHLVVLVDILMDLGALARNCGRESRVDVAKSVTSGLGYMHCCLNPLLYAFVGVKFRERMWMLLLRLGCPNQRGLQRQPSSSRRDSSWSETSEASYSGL
Experimental: Data are shown as means±S.E.M. (n=2-3).
HEK293T cells were maintained at 37° C. in a humidified 5% CO2, 95% air atmosphere in Dulbecco's modified Eagle's medium (DMEM) containing 2 mM L-glutamine, 50 IU/ml penicillin, 50 μg/ml streptomycin, and 10% (v/v) fetal calf serum. Jurkat cells were cultured in a humidified 5% CO2, 95% air atmosphere in a 1:1 mixture of Dulbecco's modified Eagle's medium (DMEM) and Ham's F12 medium containing 2 mM L-glutamine, 50 IU/ml penicillin, 50 μg/ml streptomycin, and 10% (v/v) fetal calf serum. […] [^125 I]-Labelling— Radiolabeling of Nanobodies with ^125I was performed using the Iodo-gen method (Pierce, Rockford, Ill.) according to the manufacturer's protocol. ^125I-labeled Nanobodies was separated from free iodine (>99%) using a Sephadex G-25 gel filtration column (Amersham Biosciences, Piscataway, N.J.). […] Competition Binding Assays— Membranes from HEK293T cells transiently expressing CXCR3 or CXCR4 were prepared 48 h after transfection as follows. Cells were washed and scraped from the cell culture dishes with ice-cold PBS containing 1 mm EDTA. The scraped cells were pelleted at 1500×g for 10 min at 4° C. […] The total protein was determined using a Bradford assay (Bio-Rad). […] Plates were counted by liquid scintillation. […] The accumulated inositol phosphates were isolated by anion exchange chromatography and counted by liquid scintillation. […]

CCR7 = target: T2, CCR7 (Homo sapiens, UniProt P32248); assay: CRE/β-galactosidase reporter gene selectivity screen, CCR7; assay type: cell-based; conditions: up to 2.5, forskolin 3 μM, agonist at 50-80% Emax
T2 sequence (P32248 25-378): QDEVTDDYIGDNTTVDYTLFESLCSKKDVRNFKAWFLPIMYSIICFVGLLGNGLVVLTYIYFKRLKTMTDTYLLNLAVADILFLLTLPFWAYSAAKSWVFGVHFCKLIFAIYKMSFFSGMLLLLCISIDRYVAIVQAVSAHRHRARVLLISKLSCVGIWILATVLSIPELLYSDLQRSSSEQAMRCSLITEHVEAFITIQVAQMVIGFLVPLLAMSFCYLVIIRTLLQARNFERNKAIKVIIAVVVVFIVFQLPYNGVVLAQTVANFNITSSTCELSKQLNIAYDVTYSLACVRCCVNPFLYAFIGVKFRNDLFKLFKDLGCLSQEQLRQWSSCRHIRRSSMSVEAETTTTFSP

B1: 238D2: Nanobody (VHH) raised against human CXCR4, SEQ ID NO: 238 (protein)
VHH: EVQLVESGGGLVQTGGSLRLSCAASGFTFSSYAMSWVRQAPGKGLEWVSGIKSSGDSTRYAGSVKGRFTISRDNAKNMLYLQMYSLKPEDTAVYYCAKSRVSRTGLYTYDNRGQGTQVTVSS
modifications: Nanobody, Nanobody constructs or fragments thereof
CXCR3
  effect on agonist-induced response at CXCR3: do not act as agonists or antagonists; also recorded: do not alter
CCR7
  effect on agonist-induced response at CCR7: do not act as agonists or antagonists; also recorded: do not alter

B2: 238D4: Nanobody (VHH) raised against human CXCR4, SEQ ID NO: 239 (protein)
VHH: EVQLMESGGGLVQAGGSLRLSCAASGRTFNNYAMGWFRRAPGKEREFVAAITRSGVRSGVSAIYGDSVKDRFTISRDNAKNTLYLQMNSLKPEDTAVYTCAASAIGSGALRRFEYDYSGQGTQVTVSS
modifications: Nanobody, Nanobody constructs or fragments thereof
CXCR3
  effect on agonist-induced response at CXCR3: do not act as agonists or antagonists; also recorded: do not alter
CCR7
  effect on agonist-induced response at CCR7: do not act as agonists or antagonists; also recorded: do not alter
